Data on two sequences can be found in publication PMC10120478.

In data set [1] the target is T1, MgrA C12S C12S (Staphylococcus aureus XN108 mgrAC12S mutant) (UniProt P0C1S0).
T1 sequence: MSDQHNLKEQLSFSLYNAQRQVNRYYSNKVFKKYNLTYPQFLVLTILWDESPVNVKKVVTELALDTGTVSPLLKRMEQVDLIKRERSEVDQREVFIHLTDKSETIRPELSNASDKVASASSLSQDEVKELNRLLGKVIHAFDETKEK
As to the kind of experiment: EMSA. Conditions: EMSA: 20 mM Hepes pH 7.6, 1 mM EDTA, 10 mM (NH4)2SO4, 30 mM KCl, 1 mM DTT, 0.2% (w/v) Tween-20, 10 uL, room temperature 1 min; 4% native PAGE. In general terms: Mobility shift assays separate free from complexed probe on a gel.

Data set [2] has as its target T2, MgrA (Staphylococcus aureus XN108) (UniProt P0C1S0).
T2 sequence: T1 sequence with S12C
Nature of the data set: EMSA. Conditions: EMSA: 20 mM Hepes pH 7.6, 1 mM EDTA, 10 mM (NH4)2SO4, 30 mM KCl, 1 mM DTT, 0.2% (w/v) Tween-20, 10 uL, room temperature 1 min; 4% native PAGE.

Changes are numbered by the printed parent chain.

As for “GTCACACTCCATGCCATTGAGTTGTAATATATCTTTTTTAGGTATAAATGTTGTCGAATAAACAACAAGTTGTCCAAAAGATATAAATCTAAACAAGATATAGCCAGCAATTTAATATTTGTAATAGATAAAATGCTAAGTTTGATATATAATAAATTTAAGTAATTGTATAATAATATGAATTACAAACATCTAAGAAGAAACATAGGAGGCATCA (double strand) [psarV (sarV promoter probe)]”, the results for the binding entry in data set [1] and in data set [2] were “binds more weakly” and “binds”, respectively.

As for “GTTCGACATACCCAATGCCAAAAACATACCTATTGAAATTGACAAAATTCCAATACTAACTTTTCTAATTGAATAGCGTACTTTACTTTGTTGTTTATTCATGATGAAACACTCCTTACAATAATATACAAACATTATAACATAGTGCGCTATATATTTTAATTAAAATTTTCTTTGTTTTATAAAGCTATTGTAGGAGGTAAAATAATTAACTTGTCTTTCCAAAATATGAAAAGTGTACTAAAATTCATCGCACGACAAATAGCCCATTTCCGATACTT (double strand) [plytN (lytN promoter probe)]”, the figures for the binding entry in data set [1] and in data set [2] were “binds more weakly” and “binds”, respectively.
